# Laboratory results as given in US20090196913A1 (published 2009).
# B1: CNTO95 Fab′ (from pepsin cleavage, reduction and reoxidation) conjugated to PEG-DSPE on the surface of liposomes (Fab, V domains shown)
# VH: QVQLVESGGGVVQPGRSRRLSCAASGFTFSRYTMHWVRQAPGKGLEWVAVISFDGSNKYYVDSVKGRFTISRDNSENTLYLQVNILRAEDTAVYYCAREARGSYAFDIWGQGTMVTVSS
# VL: EIVLTQSPATLSLSPGERATLSCRASQSVSSYLAWYQQKPGQAPRLLIYDASNRATGIPARFSGSGSGTDFTLTISSLEPEDFAVYYCQQRSNWPPFTFGPGTKVDIKR
# modifications: free sulfhydryl near the C-terminus conjugated to maleimide-PEG-DSPE inserted in the liposome
# Molecular target: human αVβ3/5 integrins on human tumor cells (A375.S2, MDA-MB-231, A2780, HT29, A549) (human, UniProt P06756 31-1048)
# Assay: cell-based or functional assay
# Sequence of human αVβ3/5 integrins on human tumor cells (A375.S2, MDA-MB-231, A2780, HT29, A549) (P06756 31-1048): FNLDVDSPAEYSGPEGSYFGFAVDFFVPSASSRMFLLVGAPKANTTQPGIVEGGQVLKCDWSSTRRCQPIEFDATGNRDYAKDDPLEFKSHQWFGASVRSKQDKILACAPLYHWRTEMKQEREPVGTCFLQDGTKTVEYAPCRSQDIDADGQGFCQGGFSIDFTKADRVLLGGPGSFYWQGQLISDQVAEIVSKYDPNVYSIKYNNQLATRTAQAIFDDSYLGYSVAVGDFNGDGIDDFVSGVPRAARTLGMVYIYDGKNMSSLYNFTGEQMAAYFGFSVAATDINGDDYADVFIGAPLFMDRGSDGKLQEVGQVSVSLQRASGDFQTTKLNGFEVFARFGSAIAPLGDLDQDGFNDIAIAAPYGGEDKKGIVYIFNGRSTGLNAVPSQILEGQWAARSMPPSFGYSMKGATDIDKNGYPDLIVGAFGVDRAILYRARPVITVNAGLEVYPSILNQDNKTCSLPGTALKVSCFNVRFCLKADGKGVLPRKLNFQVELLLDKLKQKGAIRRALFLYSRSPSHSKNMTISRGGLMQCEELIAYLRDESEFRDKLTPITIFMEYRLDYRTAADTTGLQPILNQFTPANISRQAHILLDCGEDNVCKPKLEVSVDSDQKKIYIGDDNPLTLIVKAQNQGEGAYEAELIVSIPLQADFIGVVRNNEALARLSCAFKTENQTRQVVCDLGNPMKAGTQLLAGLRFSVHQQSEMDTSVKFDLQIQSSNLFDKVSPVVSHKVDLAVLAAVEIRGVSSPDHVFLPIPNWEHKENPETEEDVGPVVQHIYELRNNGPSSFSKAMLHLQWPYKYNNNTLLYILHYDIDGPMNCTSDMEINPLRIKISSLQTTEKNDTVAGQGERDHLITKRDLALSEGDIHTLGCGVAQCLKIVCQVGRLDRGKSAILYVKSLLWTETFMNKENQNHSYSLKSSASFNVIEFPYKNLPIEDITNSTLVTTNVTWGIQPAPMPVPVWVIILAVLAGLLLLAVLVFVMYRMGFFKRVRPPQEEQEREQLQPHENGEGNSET
binder,measurement,value
B1,"Increase (ratio of IC50 of liposome-entrapped doxorubicin to IC50 of 90:1 integrin-targeted liposomes), breast cancer MDA-MB-231",5
same,"Increase (ratio of IC50 of liposome-entrapped doxorubicin to IC50 of 90:1 integrin-targeted liposomes), colon cancer HT29",1.1
same,"Increase (ratio of IC50 of liposome-entrapped doxorubicin to IC50 of 90:1 integrin-targeted liposomes), lung cancer A549",1
same,"Increase (ratio of IC50 of liposome-entrapped doxorubicin to IC50 of 90:1 integrin-targeted liposomes), melanoma A375.S2",29
same,"Increase (ratio of IC50 of liposome-entrapped doxorubicin to IC50 of 90:1 integrin-targeted liposomes), ovarian cancer A2780",29
